5 substances from patent publication US20260265403A1 can be followed below.

Test [1] concerns the target human CD24 on cells (human) (UniProt P25063). The experiment in a line: cell-based or functional assay.
For test [2] the target is unchanged. The experiment in a line: flow cytometry (GMFI), SKOV3 cells; EC50 table under the graphs [Cont'd) B].
The target is the same in test [3]. The experiment in a line: flow cytometry (GMFI), MCF-7 cells; EC50 table under the graphs.
The target is the same in test [4]. The test is described as follows: flow cytometry (GMFI), OVCAR3 cells.
Test [5] shares this target. The test is described as follows: flow cytometry (GMFI), A549 cells.
Test [6] deals with CD24-his protein (human) (UniProt P25063). The experiment in a line: Siglec10-PE competition assay (gMFI on the sheet); legend: Siglec-10-his-Biotin mixed with the antibody, plate coated with CD24 protein.
The target in test [7] is Human CD24 (human) (UniProt P25063). The experiment in a line: Biacore (SPR); antibody as ligand, human CD24 as analyte.
For test [8], the target named is human CD24 on cells (human) (UniProt P25063). The test is described as follows: flow cytometry (GMFI), MC38-hCD24 cells [Cont'd) C].
For test [9] the target is unchanged. The test is described as follows: flow cytometry (GMFI), MCF-7 cells.
In test [10] the target is CD24-his protein (human) (UniProt P25063). The test is described as follows: ELISA, CD24-his(HEK 293) [Cont'd) B].
Test [11] deals with human CD24 on cells (human) (UniProt P25063). The experiment in a line: flow cytometry (GMFI), NALM6 cells.
Test [12] has the same target. The test is described as follows: flow cytometry (GMFI), MCF-7 cells [Cont'd) C].
The target in test [13] is CD24-his-GST(Ecoli). The test is described as follows: ELISA, CD24-his-GST(Ecoli) [Cont'd) B].
Test [14] deals with CD24-his protein (human) (UniProt P25063). The test is described as follows: ELISA, CD24-his (HEK 293), unit taken from the concentration axis.
Test [15] concerns the target human CD24 on cells (human) (UniProt P25063). The experiment in a line: flow cytometry (MFI), MCF-7 cells [Cont'd) B].
Test [16] has the same target. The test is described as follows: flow cytometry (MFI), NALM6 cells [Cont'd) B].
For test [17] the target is unchanged.

Human CD24 (human), sequence (P25063 27-59 limits assumed): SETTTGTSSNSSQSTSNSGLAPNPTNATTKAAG
human CD24 on cells (human), sequence (P25063 27-59): as the sequence (P25063 27-59 limits assumed) above
CD24-his protein (human), sequence (P25063 27-59 limits assumed): as above
CD24-his-GST(Ecoli), sequence (chain, as listed by the source limits assumed): as the sequence (P25063 27-59 limits assumed) above

Regarding NS-17(SWA11) (antibody), in test [1], the EC50 of Phagocytosis assay, IgG1, Kappa; MCF-7 came out at 0.02 µg/mL; the EC50 of Phagocytosis assay, IgG1, Kappa; NALM6 was found to be 1.01 µg/mL; the EC50 of Phagocytosis assay, IgG1, Kappa; OVCAR3 was 0.91 µg/mL; the EC50 of Phagocytosis assay, IgG4, Kappa; MCF-7 came to 0.09 µg/mL. Also, in test [1], the EC50 of Phagocytosis assay, IgG4, Kappa; NALM6 is 0.18 µg/mL.

In the case of human isotype IgG4 (antibody), the EC50 amounted to 3.48 µg/mL in test [2] and 12.9 µg/mL in [3].

Regarding GB7011 (antibody), the EC50 (read off the curve) in [4] was determined as 0.7 µg/mL; in test [5] it was 0.3 µg/mL; in [8], 0.3 µg/mL; in test [9], 0.3 µg/mL; in test [10] it was 0.02 µg/mL; in test [11] it was 0.6 µg/mL. Further, the EC50 (read off the curve) is 0.4 µg/mL in test [12] and 0.02 µg/mL in [13]. The substance further displayed an IC50 (read off the curve) in test [6] of 2 µg/mL. The substance further had a Kd in [7] of 12.4 nM. The off-rate constant (koff) in test [7] came to 0.0104 s⁻¹. Moreover, the kon in test [7] came out at 839000 M⁻¹ s⁻¹. Besides, the EC50 in test [14] was found to be 0.0202 µg/mL.

In [15], anti-CD24 ab(SN3) (antibody) returned an EC50 (read off the curve) of 0.1 µg/mL. This substance gave an EC50 (read off the curve) in test [16] of 0.09 µg/mL. Moreover, in test [17], the EC50 (read off the curve), phagocytosis of NALM6 cells came to 0.3 µg/mL and the EC50 (read off the curve), phagocytosis of OVCAR3 cells was 0.7 µg/mL.

For the substance IMM47H (antibody), the EC50 (read off the curve) in test [4] amounted to 0.4 µg/mL; in test [5], 0.3 µg/mL; in test [9] it was 0.5 µg/mL; in [10], 0.03 µg/mL; in [11], 0.3 µg/mL; in test [12], 0.3 µg/mL. Moreover, the Kd in test [7] was found to be 165 nM. The EC50 is 0.38 µg/mL in test [2], 0.53 µg/mL in [3] and 0.0277 µg/mL in test [14].
